T1: B-P564 peptide (biotin-labeled HIF-1α 556-575 peptide)
T1 chain: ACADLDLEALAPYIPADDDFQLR

T2: F-N803 peptide (FITC-labeled HIF-1α 788-822 peptide)
T2 chain: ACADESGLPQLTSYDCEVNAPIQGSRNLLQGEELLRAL


Key:
[1] = target: T1, B-P564 peptide (biotin-labeled HIF-1α …)
[2] = target: T2, F-N803 peptide (FITC-labeled HIF-1α …)

Protein	proline hydroxylation of the peptide, MALDI mass spectrometry [1]	asparagine hydroxylation of the peptide, MALDI mass spectrometry [2]
GST-PHD2 (human prolyl hydroxylase 2, amino acids 184-426) (protein) QTKPLPALKLALEYIVPCMNKHGICVVDDFLGKETGQQIGDEVRALHDTGKFTDGQLVSQKSDSSKDIRGDKITWIEGKEPGCETIGLLMSSMDDLIRHCNGKLGSYKINGRTKAMVACYPGNGTGYVRHVDNPNGDGRCVTCIYYLNKDWDAKVSGGILRIFPEGKAQFADIEPKFDRLLFFWSDRRNPHEVQPAYATRYAITVWYFDADERARAKVKYLTGEKGVRVELNKPSDSVGKDVF	The proline residue was hydroxylated in the baicalein-free reactant	
His-FIH1 (human factor inhibiting HIF1, amino acids 1-349) (protein) MAATAAEAVASGSGEPREEAGALGPAWDESQLRSYSFPTRPIPRLSQSDPRAEELIENEEPVVLTDTNLVYPALKWDLEYLQENIGNGDFSVYSASTHKFLYYDEKKMANFQNFKPRSNREEMKFHEFVEKLQDIQQRGGEERLYLQQTLNDTVGRKIVMDFLGFNWNWINKQQGKRGWGQLTSNLLLIGMEGNVTPAHYDEQQNFFAQIKGYKRCILFPPDQFECLYPYPVHHPCDRQSQVDFDNPDYERFPNFQNVVGYETVVGPGDVLYIPMYWWHHIESLLNGGITITVNFWYKGAPTPKRIEYPLKAHQKVAIMRNIEKMLGEALGNPQEVGPLLNTMIKGRYN		The asparagine residue was hydroxylated in the baicalein-free reactant
